From patent US20240101645A1 (HENRY M JACKSON FOUNDATION FOR THE ADVANCEMENT OF MILITARY …, published 2024)
Where a chain is given by its changes, count along the chain named.

T1: HCoV-229E spike antigens (bead panel) (HCoV-229E, UniProt P15423 16-1115)
T1 sequence: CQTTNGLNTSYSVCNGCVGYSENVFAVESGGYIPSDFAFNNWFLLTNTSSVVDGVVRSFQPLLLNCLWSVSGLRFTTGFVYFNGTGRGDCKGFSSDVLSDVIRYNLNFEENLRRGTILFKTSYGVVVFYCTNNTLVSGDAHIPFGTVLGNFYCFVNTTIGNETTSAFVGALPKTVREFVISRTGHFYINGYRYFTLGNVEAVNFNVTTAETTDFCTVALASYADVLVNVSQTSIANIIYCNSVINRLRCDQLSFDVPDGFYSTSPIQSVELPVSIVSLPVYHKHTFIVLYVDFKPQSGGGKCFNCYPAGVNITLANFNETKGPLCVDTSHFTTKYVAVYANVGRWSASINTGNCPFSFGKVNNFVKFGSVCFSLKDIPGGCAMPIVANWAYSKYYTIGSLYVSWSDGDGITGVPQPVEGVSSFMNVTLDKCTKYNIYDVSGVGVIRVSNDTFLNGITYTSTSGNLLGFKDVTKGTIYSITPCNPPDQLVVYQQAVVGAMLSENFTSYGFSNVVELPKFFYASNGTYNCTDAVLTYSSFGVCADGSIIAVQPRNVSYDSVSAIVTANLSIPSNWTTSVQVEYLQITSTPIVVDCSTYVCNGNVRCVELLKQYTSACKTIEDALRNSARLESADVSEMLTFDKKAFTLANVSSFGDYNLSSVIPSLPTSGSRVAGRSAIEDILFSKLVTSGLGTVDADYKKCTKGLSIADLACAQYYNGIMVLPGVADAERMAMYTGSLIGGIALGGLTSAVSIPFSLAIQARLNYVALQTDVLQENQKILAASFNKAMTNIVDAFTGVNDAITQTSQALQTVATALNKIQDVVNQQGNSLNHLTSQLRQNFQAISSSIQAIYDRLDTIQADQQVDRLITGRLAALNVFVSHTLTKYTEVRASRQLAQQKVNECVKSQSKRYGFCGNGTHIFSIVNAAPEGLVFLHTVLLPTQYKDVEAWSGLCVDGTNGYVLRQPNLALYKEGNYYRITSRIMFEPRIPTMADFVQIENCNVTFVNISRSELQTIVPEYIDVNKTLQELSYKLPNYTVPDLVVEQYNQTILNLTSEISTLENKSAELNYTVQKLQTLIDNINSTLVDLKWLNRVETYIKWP

T2: HCoV-OC43 spike antigens (bead panel) (HCoV-OC43, UniProt P36334 14-1297)
T2 sequence: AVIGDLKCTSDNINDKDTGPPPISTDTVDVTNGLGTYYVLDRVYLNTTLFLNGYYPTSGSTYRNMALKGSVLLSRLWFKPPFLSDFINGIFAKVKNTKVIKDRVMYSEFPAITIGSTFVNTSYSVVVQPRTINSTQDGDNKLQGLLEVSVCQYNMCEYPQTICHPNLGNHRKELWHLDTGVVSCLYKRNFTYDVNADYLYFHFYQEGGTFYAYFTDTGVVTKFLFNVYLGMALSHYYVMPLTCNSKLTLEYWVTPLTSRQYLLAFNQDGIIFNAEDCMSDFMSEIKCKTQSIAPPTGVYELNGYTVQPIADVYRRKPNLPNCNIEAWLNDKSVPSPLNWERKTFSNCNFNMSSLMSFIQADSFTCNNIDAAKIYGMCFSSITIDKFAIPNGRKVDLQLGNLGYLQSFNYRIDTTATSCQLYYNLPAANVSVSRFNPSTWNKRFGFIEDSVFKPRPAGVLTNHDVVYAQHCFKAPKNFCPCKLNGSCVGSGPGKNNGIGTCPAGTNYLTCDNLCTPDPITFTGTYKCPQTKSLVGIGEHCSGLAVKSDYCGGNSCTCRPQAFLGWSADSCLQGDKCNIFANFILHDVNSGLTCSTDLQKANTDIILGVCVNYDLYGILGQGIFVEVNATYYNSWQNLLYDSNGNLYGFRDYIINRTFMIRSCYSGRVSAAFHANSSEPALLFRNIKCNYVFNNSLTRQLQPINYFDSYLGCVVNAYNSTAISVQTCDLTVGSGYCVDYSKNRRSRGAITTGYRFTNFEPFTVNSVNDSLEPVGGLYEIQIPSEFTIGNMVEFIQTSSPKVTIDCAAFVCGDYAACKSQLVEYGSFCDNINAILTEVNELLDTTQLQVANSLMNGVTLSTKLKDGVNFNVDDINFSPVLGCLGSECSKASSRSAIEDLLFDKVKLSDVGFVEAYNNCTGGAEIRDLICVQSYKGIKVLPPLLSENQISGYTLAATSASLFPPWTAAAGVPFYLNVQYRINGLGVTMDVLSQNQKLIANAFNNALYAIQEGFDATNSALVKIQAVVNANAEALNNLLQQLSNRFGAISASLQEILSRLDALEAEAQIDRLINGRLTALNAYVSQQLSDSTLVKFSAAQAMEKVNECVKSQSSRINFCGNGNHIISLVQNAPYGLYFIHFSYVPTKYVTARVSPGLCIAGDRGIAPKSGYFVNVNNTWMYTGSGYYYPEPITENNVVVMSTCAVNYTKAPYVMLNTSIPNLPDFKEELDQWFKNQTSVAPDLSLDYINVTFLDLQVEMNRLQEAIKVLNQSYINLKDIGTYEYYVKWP

B1: COV_1012 (antibody, V domains shown)
VH: QVQLQESGPGLVRPSGTLSLTCAVSGGSISSSNWWSWVRQPPGKGLEWIGEIYRSGSTNYNPSLKSRVTISVAQSKNQFSLNLTSVTAADTAVYYCAKIIVGAPSDAFDIWGQGTMVTVSS
VL: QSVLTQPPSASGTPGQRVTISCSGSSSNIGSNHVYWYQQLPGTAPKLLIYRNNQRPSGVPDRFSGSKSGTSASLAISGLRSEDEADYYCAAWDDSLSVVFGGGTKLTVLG
notes: human IgG1
B2: COV_2024 (antibody, V domains shown)
VH: QVQLVQSGAEVRKPGSSVKVSCKASGGTFSTYAISWVRQAPGQGLEWMGGIIPMFGTTNYAQKFQGRVTITADESTRTAYMELSSLRSEDTAVYYCARDGGYDSWPDFDYWGQGTLVTVSS
VL: EIVLTQSPATLSLSPGERATLSCRASQSISSFLAWYQQKPGQAPRLLIYDASNRATGIPARFSGSGSGTDFTLTVSSLEPEDFAVYYCHQRRNWPPIKTFGQGTKVDIK
notes: human IgG1
B3: COV_2056 (SEQ ID NO:432/437) (antibody, V domains shown)
VH: EVQLVESGGGVVQPGRSLRLSCAASGFTFSIYGMHWVRQAPGKGLEWVALISYDGTNKYYADSVKGRFSISRDDSKNTLYLQMNSLRPEDTAVYYCAKVLMMGDSSGFSLGDAFDIWGQGTMVTVSS
VL: DIQMTQSPSSVSASVGDRVTITCRASQGISNWLAWYQQKPGKAPKLLIYAASSLQSGVPSRFSGSVSGTDFTLTISSLQPEDFATYYCQQANSFPLTFGGGTKVDIK
B4: COV_3013 (antibody, V domains shown)
VH: EVQLVESGGGLVQPGRSLRLSCTTSGFNFGDNSMSWVRQAPGKGLEWVGFISNKAHGATTEYAASVRGRFTISRDDSKSIVYLQMNSLTTEDTAMYYCIRDSYGHFPSYGFDIWGQGTMVTVSS
VL: DVVMTQTPLSLSVTPGQPASISCKSSQSLIHSDAKTYFYWFLQKPGQPPQLLIYDVSNRFSGVPDRFSGSGSGTDFTLKISRVEAEDVGVYYCMHSIQLPRTFGQGTKVEIT
B5: COV_3040 (antibody, V domains shown)
VH: QVQLVESGGGLVQPGRSLRLSCTTSGFNFGDNSMSWVRQAPGKGLEWIGFISNKAHGGTTDYAASVKGRFTISRDDSKSIAYLQMNSLKAEDTAIYYCTKDSYGHFPSYGFDIWGQGTMVTVSS
VL: B4 VL with S26T, I30V, S32T, A34G, N58S, G73A, K79R, Q98N, L99F
B6: COV_3043 (antibody, V domains shown)
VH: EVQVVESGGGLVQPGRSLRLSCTASGFNFGDNSMSWVRQAPGKGLEWVGFISNRDHSGTTDYAASVKGRFTISRDDSKSIAYLQMNSLKTEDTAIYYCIRDSYGHFPNYGFDVWGQGTMVTVSS
VL: B4 VL with S25C, A34G, F38Q, K44R, F60V, Q98N, L99F
B7: COV_3019 (antibody, V domains shown)
VH: EVQLVESGGGLVQPGQSLRLSCTTSGFNFGDNSMSWVRQAPGKGLEWVGFISPKSHGETTEYAASVKGRFSISRDDSTSIAYLQMSSLKTEDTAIYYCIRDSYGHFPEYGFDIWGQGTMVTVSS
VL: B4 VL with M4L, S10F, Q27R, A34G, P45A, D55E, V56A, K79H, V90I, I111L
B8: COV_3031 (antibody, V domains shown)
VH: B7 VH with Q16R, P53N, S55A, H56Y, E58G, S71T, S86N, E108D
VL: B4 VL with M4L, S10F, Q27R, A34G, D55E, V56A
B9: COV_3028 (antibody, V domains shown)
VH: B7 VH with E58G, I80N, S86T
VL: DVVLTQTPLFLSVTPGQPASISCKSSGSLIHTDGKTYFYWFLQKAGQPPQLLIYEASNRFSGVPDRFSGSGSGTDFTLHISRVEAEDVGIYYCMHSIQLPRTFGQGTKVELT
B10: COV_1056 (antibody, V domains shown)
VH: QVQLVESGGGVVQPGTSLRLSCEASGFTFSAYGMHWVRQAPGKGLEWVAISRNDGTTKYYADSVKGRLTISRDNSKNTLYLQMNSLTSEDTAVYYCANQCGGGCSVDSWGQGTLVTVSS
VL: QAVVTQEASLTVSPGGTVTLTCGSSTGSVTSGHAPYWFQQKPGQAPRTLIFDTTHKHSWTPARFSGSLLGGKAALTLSGAQPEDEAEYYCLLSFGGAHVFGTGTKVTVLG
B11: COV_3005 (antibody, V domains shown)
VH: EVQLLGFGGGFIRPGGSLRLSCAASGFSFSSYSMSWVRQGPGNGLEWVAGISDRGNSKTYADSVKGRFTVSRDNSKDMLYLELTNLRVEDSATYFCARDWSQSSSSSSPDYWGPGILVTVSS
VL: DIQMTQSPSAMSAFVGDRVTITCRASLGVNNYLAWYQQRPGKVPRRLIYAASSLQSGVPSRFRGSGSGTQFTLTITGLQPEDSGTYYCLQHGRYPPVFGPGTRVELI
B12: COV_3033 (antibody, V domains shown)
VH: EVQMVESGGGFVQPGQSPRLSCLVSGLNFADYAFCWVRQAPGKGPEWIGFISSKLHGGTTHYAASVEGRFIISRDDSKNVVYLQMDNLKAEDSAVYYCTRDSYGYFPEYGFGVWGQGTLVTVSS
VL: EVVLTQTPLSLSVTPGQPASISCRSSQSLVHSDGRTYLYWFLQKPGQPPQPLIYDISSRFSGVPYRFTGSGSGTYFTLRISRVEADDVGVYYCMHSIQLPRAFGQGTKVEIK
B13: COV_1060 (antibody, V domains shown)
VH: EVQLVQSGAEVKKPGESLKISCKSSGYTFTSFWIAWVRQLPGKGLEWMGIIYPGDSDTKYSPSFQGQVTISADKSISTAYLQWSSLKASDTAMYYCARLRGSCSNGVCYAYYYNAMDVWGPGTTVTVSS
VL: QSALTQPASVSGSPGQSITISCTGTSSDIGRYNYVSWYQHHPGKAPKLMIYEVSNRPSGVSNRFSGSKSGNTASLTISGLQAEDEADYYCTSYTSGSTLGFGGGTKVTVLG
B14: COV_1046 (antibody, V domains shown)
VH: QVQLVQSGAEVQKPGASVKVSCKASGDTFSYSYVHWVRQAPGHGLEWMGIINPSNGDTNYTQNFQGRVTMTSDTSTSTVLLELSSLTSDDTAVYYCARAPDQYFDYWGQGSPVTVSA
VL: DIVMTQTPLSSPVTLGQPASISCRSSESLVHSDGNTYLSWLQQRPGQPPRLLIYRVSNRFSGVPDRFSGSGAGTDFTLKISRVEAEDVGVYYCMQAKDFPRTFGQGTKVEIK

Each binder was assayed against T1, HCoV-229E spike antigens (bead panel) (assay: multiplex bead assay).

Question: Does B1 bind?
Answer: no binding

These binders were tested against T2, HCoV-OC43 spike antigens (bead panel) (assay: multiplex bead assay).

Question: Does B2 bind?
Answer: no binding

Question: Does B3 bind?
Answer: no binding

The binders below were run against SARS-CoV-2 S on pseudovirions (Wuhan Hu-1 / IL1/2020, last 18 amino acids removed) (SARS-CoV-2, UniProt P0DTC2 14-1273) (assay: cell-based or functional assay).

Question: With B4 as the binder, how does the “Mean IC50, pSV neutralization” value read?
Answer: ≥ 25 µg/ml

Question: And the “Mean IC80, pSV neutralization” value?
Answer: ≥ 25 µg/ml

Question: B5 was tested. Which “Mean IC50, pSV neutralization” value did it give?
Answer: ≥ 25 µg/ml

Question: What about the “Mean IC80, pSV neutralization” value of the same binder?
Answer: ≥ 25 µg/ml

Question: With B6 as the binder, how does the “Mean IC50, pSV neutralization” value read?
Answer: ≥ 25 µg/ml

Question: What about the “Mean IC80, pSV neutralization” value of the same binder?
Answer: ≥ 25 µg/ml

Question: B7 was tested. Which “Mean IC50, pSV neutralization” value did it give?
Answer: ≥ 25 µg/ml

Question: And the “Mean IC80, pSV neutralization” value?
Answer: ≥ 25 µg/ml

Question: What does the source list for B8?
Answer: Mean IC50, pSV neutralization: ≥ 25 µg/ml; Mean IC80, pSV neutralization: ≥ 25 µg/ml

Question: How did the “Mean IC50, pSV neutralization” value turn out when B9 was run?
Answer: ≥ 25 µg/ml

Question: And the “Mean IC80, pSV neutralization” value?
Answer: ≥ 25 µg/ml

Question: For B2, which “Mean IC50, pSV neutralization” value is on record?
Answer: 9.59 µg/ml

Question: And the “Mean IC80, pSV neutralization” value?
Answer: ≥ 25 µg/ml

Question: B10 was tested. Which “Mean IC50, pSV neutralization” value did it give?
Answer: ≥ 25 µg/ml

Question: What about the “Mean IC80, pSV neutralization” value of the same binder?
Answer: ≥ 25 µg/ml

Question: What does the source list for B11?
Answer: Mean IC50, pSV neutralization: ≥ 25 µg/ml; Mean IC80, pSV neutralization: ≥ 25 µg/ml

Question: Which “Mean IC50, pSV neutralization” value does the source give for B12 here?
Answer: ≥ 25 µg/ml

Question: What about the “Mean IC80, pSV neutralization” value of the same binder?
Answer: ≥ 25 µg/ml

Question: Which results are given for B13?
Answer: Mean IC50, pSV neutralization: ≥ 25 µg/ml; Mean IC80, pSV neutralization: ≥ 25 µg/ml

Question: What does the source list for B3?
Answer: Mean IC50, pSV neutralization: 13.2 µg/ml; Mean IC80, pSV neutralization: ≥ 25 µg/ml

Question: B1 was tested. Which “Mean IC50, pSV neutralization” value did it give?
Answer: ≥ 25 µg/ml

Question: And the “Mean IC80, pSV neutralization” value?
Answer: ≥ 25 µg/ml

Question: Which results are given for B14?
Answer: Mean IC50, pSV neutralization: ≥ 25 µg/ml; Mean IC80, pSV neutralization: ≥ 25 µg/ml
